In patent US20080306243A1, “Hla-Binding Peptide, and Dna Fragment and Recombinant Vector Coding for Said Hla-Binding Peptide” (NEC CORPORATION, priority 2005, published 2008):
Read-outs that look alike come from different tables or passages of the source.

Legend:
[1] = biological target: HLA-A2402 molecule, which is a product of the HLA-A*2402 gene (human); test: flow cytometry; reassociation of peptide, added β2m and HLA-A2402 on acid-stripped C1R-A24 cells, stained with mAb 17A12
[2] = biological target: HLA-A0206 molecule, which is a product of the HLA-A*0206 gene (human); test: flow cytometry; peptide stabilisation of empty HLA-A0206 on RA2.6 cells (TAP-deficient), stained with mAb 17A10 or 17A12
[3] = biological target: HLA-A0201 molecule, which is a product of the HLA-A*0201 gene (human); test: flow cytometry; reassociation of peptide, added β2m and HLA-A0201 on acid-stripped JY cells, stained with mAb BB7.2; settings: remark: other sources report otherwise
[4] = remark: other sources report otherwise

B1: SEQ ID NO 12 (peptide)
peptide: WVLTAAHCI
-log Kd [1, 4]: 4.63 -log Kd

B2: SEQ ID NO 24 (peptide)
peptide: WVPVVFLTL
modifications: not checked
-log Kd [2]: 6.74 -log Kd

B3: SEQ ID NO 27 (peptide)
peptide: DLPTQEPAL
modifications: not checked
-log Kd [2]: 5.26 -log Kd

B4: SEQ ID NO 22 (peptide)
peptide: LVASRGRAV
modifications: not checked
-log Kd [2]: 5.25 -log Kd

B5: SEQ ID NO 17 (peptide)
peptide: MLLRLSEPA
-log Kd [3]: 6.2 -log Kd

B6: SEQ ID NO 2 (peptide)
peptide: WVPVVFLTL
modifications: not checked
-log Kd [1]: 7.29 -log Kd

B7: SEQ ID NO 4 (peptide)
peptide: DLPTQEPAL
modifications: not checked
-log Kd [1, 4]: 5.23 -log Kd

B8: SEQ ID NO 19 (peptide)
peptide: GVLVHPQWV
modifications: not checked
-log Kd [2]: 6.28 -log Kd
